Experimental data from article PMC6650474, “Plasmodium myosin A drives parasite invasion by an atypical force generating mechanism” (Nature Communications, 2019).
Numbering of substitutions follows the chain as printed. Names may count otherwise.

Target: Skeletal muscle actin (chicken, UniProt P68139 1-377)
Assay: cell-based or functional assay

B1: Full-length PfMyoA (Plasmodium falciparum myosin A) heavy chain, wild type, co-expressed with the light chains PfMTIP and PfELC (complex)
chain 1: MAVTNEEIKTASKIVRRVSNVEAFDKSGSVFKGYQIWTDISPTIENDPNIMFVKCVVQQGSKKEKLTVVQIDPPGTGTPYDIDPTHAWNCNSQVDPMSFGDIGLLNHTNIPCVLDFLKHRYLKNQIYTTAVPLIVAINPYKDLGNTTNEWIRRYRDTADHTKLPPHVFTCAREALSNLHGVNKSQTIIVSGESGAGKTEATKQIMRYFASSKSGNMDLRIQTAIMAANPVLEAFGNAKTIRNNNSSRFGRFMQLVISHEGGIRYGSVVAFLLEKSRIITQDDNERSYHIFYQFLKGANSTMKSKFGLKGVTEYKLLNPNSTEVSGVDDVKDFEEVIESLKNMELSESDIEVIFSIVAGILTLGNVRLIEKQEAGLSDAAAIMDEDMGVFNKACELMYLDPELIKREILIKVTVAGGTKIEGRWNKNDAEVLKSSLCKAMYEKLFLWIIRHLNSRIEPEGGFKTFMGMLDIFGFEVFKNNSLEQLFINITNEMLQKNFVDIVFERESKLYKDEGISTAELKYTSNKEVINVLCEKGKSVLSYLEDQCLAPGGTDEKFVSSCATNLKENNKFTPAKVASNKNFIIQHTIGPIQYCAESFLLKNKDVLRGDLVEVIKDSPNPIVQQLFEGQVIEKGKIAKGSLIGSQFLNQLTSLMNLINSTEPHFIRCIKPNENKKPLEWCEPKILIQLHALSILEALVLRQLGYSYRRTFEEFLYQYKFVDIAAAEDSSVENQNKCVNILKLSGLSESMYKIGKSMVFLKQEGAKILTKIQREKLVEWENCVSVIEAAILKHKYKQKVNKNIPSLLRVQAHIRKKMVAQ
chain 2: MKQECNVCYFNLPDPESTLGPYDNELNYFTWGPGFEYEPEPQRKPLSIEESFENSEESEESVADIQQLEEKVDESDVRIYFNEKSSGGKISIDNASYNARKLGLAPSSIDEKKIKELYGDNLTYEQYLEYLSICVHDKDNVEELIKMFAHFDNNCTGYLTKSQMKNILTTWGDALTDQEAIDALNAFSSEDNIDYKLFCEDILQ
chain 3: MASDMEEKFREAFILFSSCSDHIEMYKFFELMNSFGIILTNDEKAALPNDINMDYWLNFAKKHYNYEQPFKHINNVNEQNTNVQIKIDNFLGIMKALDTRLTESDLNILLQITNPENKSTLNLKTVSQKLTESI
modifications: phosphoserine at 19 (96 ± 1% of the peptides); biotin on the biotin carboxyl carrier protein segment
  Km for skeletal actin of the actin-activated ATPase activity (Michaelis-Menten fit, 30 °C, 5 mM KCl): 30.3 µM

B2: ΔN version of full-length PfMyoA heavy chain (residues Ala2 through Ser19 removed), co-expressed wit (complex)
chain 1: MNVEAFDKSGSVFKGYQIWTDISPTIENDPNIMFVKCVVQQGSKKEKLTVVQIDPPGTGTPYDIDPTHAWNCNSQVDPMSFGDIGLLNHTNIPCVLDFLKHRYLKNQIYTTAVPLIVAINPYKDLGNTTNEWIRRYRDTADHTKLPPHVFTCAREALSNLHGVNKSQTIIVSGESGAGKTEATKQIMRYFASSKSGNMDLRIQTAIMAANPVLEAFGNAKTIRNNNSSRFGRFMQLVISHEGGIRYGSVVAFLLEKSRIITQDDNERSYHIFYQFLKGANSTMKSKFGLKGVTEYKLLNPNSTEVSGVDDVKDFEEVIESLKNMELSESDIEVIFSIVAGILTLGNVRLIEKQEAGLSDAAAIMDEDMGVFNKACELMYLDPELIKREILIKVTVAGGTKIEGRWNKNDAEVLKSSLCKAMYEKLFLWIIRHLNSRIEPEGGFKTFMGMLDIFGFEVFKNNSLEQLFINITNEMLQKNFVDIVFERESKLYKDEGISTAELKYTSNKEVINVLCEKGKSVLSYLEDQCLAPGGTDEKFVSSCATNLKENNKFTPAKVASNKNFIIQHTIGPIQYCAESFLLKNKDVLRGDLVEVIKDSPNPIVQQLFEGQVIEKGKIAKGSLIGSQFLNQLTSLMNLINSTEPHFIRCIKPNENKKPLEWCEPKILIQLHALSILEALVLRQLGYSYRRTFEEFLYQYKFVDIAAAEDSSVENQNKCVNILKLSGLSESMYKIGKSMVFLKQEGAKILTKIQREKLVEWENCVSVIEAAILKHKYKQKVNKNIPSLLRVQAHIRKKMVAQ
chain 2: B1 chain 2
chain 3: B1 chain 3
modifications: biotin on the biotin carboxyl carrier protein segment
  Km for skeletal actin of the actin-activated ATPase activity (Michaelis-Menten fit, 30 °C, 5 mM KCl): 7.34 µM

B3: Full-length PfMyoA heavy chain S19A (phospho-null), co-expressed with the light chains PfMTIP and PfELC (complex)
chain 1: B1 chain 1 with S19A
chain 2: B1 chain 2
chain 3: B1 chain 3
modifications: biotin on the biotin carboxyl carrier protein segment
  Km for skeletal actin of the actin-activated ATPase activity (Michaelis-Menten fit, 30 °C, 5 mM KCl): 8.5 µM

B4: Full-length PfMyoA heavy chain K764E (charge reversal in the converter), co-expressed with the light chains PfMTIP and PfELC (complex)
chain 1: B1 chain 1 with K764E
chain 2: B1 chain 2
chain 3: B1 chain 3
modifications: biotin on the biotin carboxyl carrier protein segment
  Km for skeletal actin of the actin-activated ATPase activity (Michaelis-Menten fit, 30 °C, 5 mM KCl): 18.2 µM
